In the assay the target is T1, MBP-SnRK2.3 (Arabidopsis thaliana, UniProt Q39193 1-361).
T1 construct: SnRK2.3 (SnRK2I) of Arabidopsis thaliana; ORF cloned into pMAL-c2x; pMAL-c2x places MBP at the N-terminus (surmised from the vector); also called SnRK2.3-MBP; source: E. coli BL21, purified (Amylose Resin)
T1 sequence (looked up): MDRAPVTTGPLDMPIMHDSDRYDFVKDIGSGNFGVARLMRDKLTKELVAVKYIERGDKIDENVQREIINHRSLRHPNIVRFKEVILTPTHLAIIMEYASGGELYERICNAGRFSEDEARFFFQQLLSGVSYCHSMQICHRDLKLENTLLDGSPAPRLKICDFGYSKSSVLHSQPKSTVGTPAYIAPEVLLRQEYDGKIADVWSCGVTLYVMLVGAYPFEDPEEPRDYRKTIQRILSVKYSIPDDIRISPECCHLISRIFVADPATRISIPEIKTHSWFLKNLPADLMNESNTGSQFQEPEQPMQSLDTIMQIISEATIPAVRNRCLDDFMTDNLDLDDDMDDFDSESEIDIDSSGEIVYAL
The experiment in a line: pull-down; AtPP2-B11-GST held on GST beads, incubated with MBP-SnRK2s 2 h at room temperature or 4°C overnight; washed four times; anti-MBP blot. The settings on record: both partners purified.

B1: GST-AtPP2-B11 (natural protein, Arabidopsis thaliana, UniProt Q949S5 1-257, looked up)
chain: MNNLPEDCIAKILSLTTPLDVCRLSAVSSIFRSAAGSDDVWNHFLPADFPAGFAAPAGLPTRKQLFFSLVDNPLLINGTLLSFSLERKSGNKCYMMAARALNIVWGHEQRYWHWISLPNTRFGEVAELIMVWWLEITGKINITLLSDDTLYAAYFVFKWNHSPYGFRQPVETSLVLADTESTDNVVQPSMISLMQDSGGEEGQSPVLRRDGWYEVELGQFFKRRGDLGEIEMSLKETKGPYEKKGLIVYGIEIRPVP
notes: AtPP2-B11, F-box protein of Arabidopsis thaliana, 257 amino acids; ORF cloned into pGEX-4T-1; pGEX-4T-1 places GST at the N-terminus (surmised from the vector); also called AtPP2-B11-GST; source: E. coli BL21, purified (Glutathione Agarose)
For the molecule B1, the binding result is on record as “binds”.

For the origin of these results see PMC5560758, “SCF^AtPP2-B11 modulates ABA signaling by facilitating SnRK2.3 degradation in Arabidopsis thaliana” (PLoS Genetics, 2017).
